B1: glucagon derivative of SEQ ID NO: 15 (peptide)
peptide: Y[Aib]QGTFTSDYSKYLCEKRAQDFVVWLMNT
B2: glucagon derivative of SEQ ID NO: 16 (peptide)
peptide: Y[Aib]QGTFTSDYSKYLDCRRAQVFVQWLMRT
B3: glucagon derivative of SEQ ID NO: 44 (peptide)
peptide: YXQGTFTSDYSKYLDSRRAQDFVQWLMNTC
modifications: X at position 2 = aminoisobutyric acid (Aib)
B4: glucagon derivative of SEQ ID NO: 36 (peptide)
peptide: Y[Aib]QGTFTSDCSKYLDERRAKEFVQWLMNT
modifications: lactam 16-20
B5: glucagon derivative of SEQ ID NO: 37 (peptide)
peptide: Y[Aib]QGTFTSDYSKYLDERRAKEFVQWLMNTC
modifications: lactam 16-20
B6: glucagon derivative of SEQ ID NO: 17 (peptide)
peptide: Y[Aib]QGTFTSDYSKYLDCVRAQDFVQWLMRT
B7: glucagon derivative of SEQ ID NO: 5 (peptide)
peptide: HSQGTFTSDYSKYLDSCEAQDFVQWLMNT
B8: glucagon derivative of SEQ ID NO: 28 (peptide)
peptide: W[Aib]QGTFVSDYSKYLDECRAKDFVQWLMNT
modifications: lactam 16-20
B9: glucagon derivative of SEQ ID NO: 12 (peptide)
peptide: Y[Aib]QGTFTSDYSKYLDEKRAKEFVQWLMNTC
modifications: lactam 16-20
B10: glucagon derivative of SEQ ID NO: 14 (peptide)
peptide: Y[Aib]QGTFTSDYSKYLDCKRAKEFVQWLMNT
modifications: not fully specified (bridges)
B11: glucagon derivative of SEQ ID NO: 11 (peptide)
peptide: Y[Aib]QGTFTSDYSKYLDEKCAKEFVQWLMNT
modifications: not fully specified (bridges)
B12: glucagon derivative of SEQ ID NO: 26 (peptide)
peptide: W[Aib]QGTFTSDYSKYLDECRAKDFVQWLMNT
modifications: lactam 16-20
B13: glucagon derivative of SEQ ID NO: 4 (peptide)
peptide: HSQGTFTSDYSKYLDSCDAQDFVQWLMNT
B14: glucagon derivative of SEQ ID NO: 33 (peptide)
peptide: YXQGTFTSDYSKYLDSRRAQDFVQWLMNT
modifications: X at position 2 = aminoisobutyric acid (Aib)
B15: glucagon derivative of SEQ ID NO: 8 (peptide)
peptide: Y[Aib]QGTFTSDYSKYLDSCDAQDFVQWLINT
B16: glucagon derivative of SEQ ID NO: 30 (peptide)
peptide: W[Aib]QGTFTSDYSKCLDERRAKDFVQWLMNT
modifications: lactam 16-20
B17: glucagon derivative of SEQ ID NO: 23 (peptide)
peptide: Y[Aib]QGTFTSDYSKYCDEKRAKEFVQWLMNT
modifications: lactam 16-20
B18: glucagon derivative of SEQ ID NO: 45 (peptide)
peptide: Y[Aib]QGTFTSDYSCYLDEKRAKEFVQWLMNT
B19: glucagon derivative of SEQ ID NO: 7 (peptide)
peptide: YSQGTFTSDYSKYLDSCEADDFVQWLMNT
B20: glucagon derivative of SEQ ID NO: 9 (peptide)
peptide: Y[Aib]QGTFTSDYSKYLDSCDAQDFVVWLINT
B21: glucagon derivative of SEQ ID NO: 24 (peptide)
peptide: Y[Aib]QGTFTSDYSKCLDEKRAKEFVQWLMNT
modifications: lactam 16-20
B22: glucagon derivative of SEQ ID NO: 41 (peptide)
peptide: Y[Aib]QGTFCSDYSKYLDERRAKDFVQWLMNT
modifications: lactam 16-20
B23: glucagon derivative of SEQ ID NO: 35 (peptide)
peptide: Y[Aib]QGTFTSDYSKYCDERRAKEFVQWLMNT
modifications: lactam 16-20
B24: glucagon derivative of SEQ ID NO: 6 (peptide)
peptide: HSQGTFTSDYSKYLDSCEADDFVQWLMNT
B25: glucagon derivative of SEQ ID NO: 32 (peptide)
peptide: SQGTFTSDYSKYLDECRAKEFVQWLMNT
modifications: lactam 15-19
B26: glucagon derivative of SEQ ID NO: 22 (peptide)
peptide: Y[Aib]QGTFTSDYSKYLDEKRCKEFVQWLMNT
modifications: lactam 16-20
B27: glucagon derivative of SEQ ID NO: 3 (peptide)
peptide: HSQGTFTSDYSKYLDCERAQDFVQWLMNT
B28: glucagon derivative of SEQ ID NO: 42 (peptide)
peptide: Y[Aib]QGTFCSDYSKYLDSRRAQDFVQWLMNT
B29: glucagon derivative of SEQ ID NO: 21 (peptide)
peptide: Y[Aib]QGTFTSDYSKYLDEKCAKEFVQWLMNT
modifications: lactam 16-20
B30: glucagon derivative of SEQ ID NO: 27 (peptide)
peptide: Y[Aib]QGTFVSDYSKYLDECRAKDFVQWLMNT
modifications: lactam 16-20
B31: glucagon derivative of SEQ ID NO: 19 (peptide)
peptide: Y[Aib]QGTFTSDYSKYLCEKRAKEFVQWLMNT
modifications: lactam 16-20
B32: glucagon derivative of SEQ ID NO: 31 (peptide)
peptide: Y[Aib]QGTFTSDYSKYLDCKRAKEFVQWLMNT
modifications: lactam 17-21
B33: glucagon derivative of SEQ ID NO: 40 (peptide)
peptide: Y[Aib]QGTFVSDYSKYLDERRAKDFVQWLMNTC
modifications: lactam 16-20
B34: glucagon derivative of SEQ ID NO: 43 (peptide)
peptide: Y[Aib]QGTFTSDCSKYLDSRRAQDFVQWLMNT
B35: glucagon derivative of SEQ ID NO: 29 (peptide)
peptide: Y[Aib]QGTFTSDYSKCLDERRAKDFVQWLMNT
modifications: lactam 16-20
B36: glucagon derivative of SEQ ID NO: 25 (peptide)
peptide: Y[Aib]QGTFTSDYSKYLDEKRAKCFVQWLMNT
modifications: lactam 16-20
B37: glucagon derivative of SEQ ID NO: 18 (peptide)
peptide: Y[Aib]QGTFTSDYSKYLDSRRACDFRLWLMNT
B38: glucagon derivative of SEQ ID NO: 34 (peptide)
peptide: W[Aib]QGTFTSDYSKYCDERRAKEFVQWLMNT
modifications: lactam 16-20
B39: glucagon derivative of SEQ ID NO: 38 (peptide)
peptide: Y[Aib]QGTFCSDYSKYLDERRAKEFVQWLMNT
modifications: lactam 16-20
B40: glucagon derivative of SEQ ID NO: 2 (peptide)
peptide: HSQGTFTSDYSKYLDCDRAQDFVQWLMNT
B41: glucagon derivative of SEQ ID NO: 20 (peptide)
peptide: Y[Aib]QGTFTSDYSKYLDECRAKEFVQWLMNT
modifications: lactam 16-20
B42: glucagon derivative of SEQ ID NO: 13 (peptide)
peptide: Y[Aib]QGTFTSDYSCYLDSRRAQDFVQWLMNT
B43: glucagon derivative of SEQ ID NO: 39 (peptide)
peptide: Y[Aib]QGTFVSDCSKYLDERRAKDFVQWLMNT
modifications: lactam 16-20
B44: glucagon derivative of SEQ ID NO: 10 (peptide)
peptide: Y[Aib]QGTFTSDYSKYLDSCDADDFVVWLINT

Bridge positions count the residues as written; N and C are the ends. Square brackets hold non-standard residues; d marks the D form. Ends that are not written are not given here. Aib = CC(C)(N)C(=O)O

The assay deals with human glucagon receptor (human, UniProt P47871 26-477). The experiment in a line: cell-based or functional assay.
human glucagon receptor, sequence (P47871 26-477): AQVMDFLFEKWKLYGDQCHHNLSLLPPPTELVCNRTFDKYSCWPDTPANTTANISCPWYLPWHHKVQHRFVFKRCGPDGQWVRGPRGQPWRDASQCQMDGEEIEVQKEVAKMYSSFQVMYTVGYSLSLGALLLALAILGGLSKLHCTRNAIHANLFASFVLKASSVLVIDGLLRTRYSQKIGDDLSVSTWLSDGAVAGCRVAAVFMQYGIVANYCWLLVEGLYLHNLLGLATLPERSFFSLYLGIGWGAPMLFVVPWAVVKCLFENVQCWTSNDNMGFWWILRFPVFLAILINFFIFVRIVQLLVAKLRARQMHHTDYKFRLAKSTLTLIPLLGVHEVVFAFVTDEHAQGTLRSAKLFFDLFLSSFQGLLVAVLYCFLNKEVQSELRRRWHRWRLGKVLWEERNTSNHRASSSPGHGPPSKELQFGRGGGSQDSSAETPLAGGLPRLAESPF
Turning to B1, the “In vitro Activity (relative activity to SEQ ID NO: 1, %); cAMP assay, from EC50” value amounted to 1.1%.
With B2, the “In vitro Activity (relative activity to SEQ ID NO: 1, %); cAMP assay, from EC50” value turned out to be 4.2%.
As for B3, the “In vitro Activity (relative activity to SEQ ID NO: 1, %); cAMP assay, from EC50” value was 75.4%.
Next, B4: 9.9%.
For B5, the “In vitro Activity (relative activity to SEQ ID NO: 1, %); cAMP assay, from EC50” value worked out at 226%.
As to B6, the “In vitro Activity (relative activity to SEQ ID NO: 1, %); cAMP assay, from EC50” value amounted to 23.2%.
In the case of B7, the “In vitro Activity (relative activity to SEQ ID NO: 1, %); cAMP assay, from EC50” value worked out at 0.3%.
In the case of B8, the “In vitro Activity (relative activity to SEQ ID NO: 1, %); cAMP assay, from EC50” value was under 0.1%.
Regarding B9, the “In vitro Activity (relative activity to SEQ ID NO: 1, %); cAMP assay, from EC50” value came to 56.3%.
Take B10: the “In vitro Activity (relative activity to SEQ ID NO: 1, %); cAMP assay, from EC50” value was determined as 18.1%.
For B11, the “In vitro Activity (relative activity to SEQ ID NO: 1, %); cAMP assay, from EC50” value amounted to 4.6%.
As to B12, the “In vitro Activity (relative activity to SEQ ID NO: 1, %); cAMP assay, from EC50” value was determined as 1%.
Turning to B13, the “In vitro Activity (relative activity to SEQ ID NO: 1, %); cAMP assay, from EC50” value is under 0.1%.
Regarding B14, the “In vitro Activity (relative activity to SEQ ID NO: 1, %); cAMP assay, from EC50” value turned out to be 108%.
As for B15, the figure is under 0.1%; as for B16, 0.3%; as for B17, 76.8%.
As to B18, the “In vitro Activity (relative activity to SEQ ID NO: 1, %); cAMP assay, from EC50” value is 5.2%.
With B19, the “In vitro Activity (relative activity to SEQ ID NO: 1, %); cAMP assay, from EC50” value is under 0.1%.
B20: the “In vitro Activity (relative activity to SEQ ID NO: 1, %); cAMP assay, from EC50” value was under 0.1%.
As for B21, the figure is 58%.
Consider B22, for which the “In vitro Activity (relative activity to SEQ ID NO: 1, %); cAMP assay, from EC50” value amounted to 45.2%.
As for B23, the figure is 17.7%; as for B24, under 0.1%.
Consider B25, for which the “In vitro Activity (relative activity to SEQ ID NO: 1, %); cAMP assay, from EC50” value worked out at 0.7%.
For B26, the “In vitro Activity (relative activity to SEQ ID NO: 1, %); cAMP assay, from EC50” value is 148%.
Consider B27, for which the “In vitro Activity (relative activity to SEQ ID NO: 1, %); cAMP assay, from EC50” value was found to be 6.1%.
As for B28, the figure is 37.9%.
For the molecule B29, the “In vitro Activity (relative activity to SEQ ID NO: 1, %); cAMP assay, from EC50” value was found to be 57.8%.
On to B30, for which the “In vitro Activity (relative activity to SEQ ID NO: 1, %); cAMP assay, from EC50” value was determined as 93.6%.
On to B31, for which the “In vitro Activity (relative activity to SEQ ID NO: 1, %); cAMP assay, from EC50” value was 12.1%.
As for B32, the “In vitro Activity (relative activity to SEQ ID NO: 1, %); cAMP assay, from EC50” value was 6.3%.
Next, B33: 40.8%; B34: 1.6%; B35: 61.3%.
For the molecule B36, the “In vitro Activity (relative activity to SEQ ID NO: 1, %); cAMP assay, from EC50” value is 46.9%.
As for B37, the figure is under 0.1%; as for B38, 0.2%.
Next, B39: 167%; B40: 0.6%.
Turning to B41, the “In vitro Activity (relative activity to SEQ ID NO: 1, %); cAMP assay, from EC50” value was 300%.
Turning to B42, the “In vitro Activity (relative activity to SEQ ID NO: 1, %); cAMP assay, from EC50” value worked out at 5.2%.
As to B43, the “In vitro Activity (relative activity to SEQ ID NO: 1, %); cAMP assay, from EC50” value was 3.7%.
On to B44, for which the “In vitro Activity (relative activity to SEQ ID NO: 1, %); cAMP assay, from EC50” value is under 0.1%.

The values above are taken from patent US20230310631A1, “THERAPEUTIC USE OF GLUCAGON DERIVATIVE OR CONJUGATE THEREOF FOR LIVER DISEASE” (HANMI PHARM. CO., LTD., priority 2020, published 2023).
